Experimental data reported in the supplement of paper PMC10567573.

B1: KRT13 (parent)
chain: KTIEELRDKILTATIENNRVILEI
B2: KLHL14 (parent)
chain: YVIGGRNETGYLSSVECYNLETNE

Variants of: B1
Experiment: protein stability index of a GFP-peptide fusion (GPS, HEK-293T) (PSI 1-6); higher = more stable
Details: c terminus: a fixed tail appended
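Further: lentivirally expressed fusions sorted by FACS into six bins by GFP to DsRed ratio, PSI derived from sequencing read proportions per bin multiplied by bin number.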

Protein stability index of substitutions, site by site:
I3: A 1.24 | C 3.18 | E 2.13 | Q 2.43 | K 2.09 | T 2.91 | D 1.67 | N 2.43
L6: H 3.32 | Q 1.89 | Y 3.18 | R 2.56 | V 2.23 | C 3.04 | K 2.32 | I 2.5 | G 1.47 | P 1.48 | D 1.92 | T 2.46 | N 1.31 | M 1.98
T12: N 2.83 | I 3.39 | V 3.5 | Q 2.65 | D 1.76 | H 2.66 | R 1.88 | A 2.5 | G 1.59
E16: A 3.13 | C 2.33 | V 2.8 | Y 1.32 | H 2.52 | G 2.38 | S 2.3 | W 3.31 | F 3.08 | D 3.13 | Q 3.1
K1: H 2.09 | Y 2.36 | T 2.34 | E 2.38 | P 1.24 | A 3.63 | S 3.17 | W 3.79 | F 3.36 | M 1.88 | I 2.74 | D 2.31
L22: S 2.1 | Q 2.88 | F 3.35 | K 2.38 | Y 2.83 | T 1.93 | D 2.84 | M 2.2 | H 2.52 | E 3.14 | R 2.14
D8: M 3.19 | I 1.64 | K 2.66 | F 2.81 | L 1.77 | P 2.46 | A 2.49 | Y 2.14
E23: H 2.05 | L 2.42 | F 4.41 | K 1.25 | W 2.9 | S 2.78 | V 3.08 | M 3.54 | A 1.85 | I 2.71 | R 2.55 | Q 2.47 | T 2.79
T2: M 2.73 | H 1.86 | E 1.63 | L 2.35 | D 2.88 | W 3.4 | N 2.12
I10: P 2.7 | R 2.31 | W 3.93 | A 2.17 | F 3.07 | S 2.2 | N 1.78 | K 1.55 | C 2.28 | M 2.3 | T 1.43 | V 1.75 | L 1.47 | Y 3.2 | D 1.73 | Q 1.54
K9: T 2.35 | S 1.99 | P 2.84 | V 2.86 | C 3.32 | A 1.85 | N 2.29 | L 2.37 | E 2.7 | D 2.24 | F 2.7
E5: K 2.95 | Q 2.38 | M 4.08 | Y 4.43 | G 2.46 | V 1.83 | A 2.6 | I 3.5 | W 2.82
I21: D 2.43 | N 1.64 | F 3.3 | Q 1.94 | L 2.52 | Y 2.79 | V 2.6 | K 1.74 | P 2.44 | T 1.47 | G 1.62 | C 2.42 | H 2.49 | M 2.18 | R 2.49 | E 2.19
R7: D 2.25 | P 1.15 | T 2.16 | L 3.71 | N 2.38 | C 3.68 | F 1.85 | A 2.27 | K 1.51
I15: S 2.17 | D 1.75 | G 2.77 | Q 2.07 | A 1.66 | L 2.31 | P 2.17 | K 3.7
E4: L 4.03 | R 3.26 | V 2.4 | I 2.6 | M 1.7 | S 3.44 | H 3.82
N18: H 2.65 | Y 2.01 | W 1.96 | I 2.9
V20: K 2.1 | P 1.78 | R 1.72 | S 2.01 | Q 2.05 | G 1.6 | A 1.82 | I 2.69 | Y 1.78 | H 1.6 | D 2.35 | T 2.33 | E 2.27 | L 3.48 | F 1.8
L11: P 1.95 | Y 3.58 | N 2.85 | M 2.94 | G 1.87 | Q 2.72 | A 1.3 | S 2.68 | R 1.39 | K 1.59
A13: M 1.08 | R 3.35 | Q 1.81 | L 2.61 | C 2.5 | V 3 | G 3.86 | W 2.81 | K 1.67 | D 1.53
I24: G 2.63 | R 1.98 | N 2.64 | D 3.09 | T 1.73 | Y 2.16 | K 3.08 | H 1.93 | L 3.35 | V 2.97 | E 2.65 | P 3.4 | A 2.65 | S 1.92
N17: V 1.59 | L 1.78 | T 3.19 | M 2.57 | P 3.1 | Q 3.06 | K 2.4 | D 2.84 | E 2.73
R19: W 2.74 | G 3.05 | E 2.47 | P 2.25 | T 2.99 | N 1.76 | Q 2.64 | V 2.64 | S 2.23 | D 2.11 | H 3.1
T14: P 2.52 | N 3.03 | R 2.59 | C 3.4 | Q 2.99 | D 2.57 | G 4.63

Variants of: B2
Experiment: as above
Details: c terminus: a fixed tail appended

Protein stability index: each site, then its substitutions
E21: D 1.8 | R 1.91 | G 2.19 | S 2.29 | P 1.93
S13: E 2.61 | L 2.25 | K 1.68
T9: I 1.49 | C 1.73 | E 2.67
Y18: I 2.5 | D 2.77 | H 2.32 | W 2.21 | E 2.48
C17: D 2.82 | R 2.39 | S 2.11
N19: S 1.83 | G 1.7 | V 1.66 | Q 2 | Y 1.76 | C 1.57
V15: W 2.21 | N 2.46 | K 2.12
G5: V 1.49 | I 2.24 | C 1.93 | F 2.41 | W 2.92
G4: D 1.89 | W 2.32 | R 1.71 | C 1.75
V2: Q 2.7 | P 3.9
T22: H 2.54 | L 2.1 | S 1.4
L20: I 2.21 | P 1.83 | Q 2.48 | F 1.98
N23: G 1.74 | C 2.45 | E 2.67 | D 2.75 | Q 3.14
Y11: N 2.83 | D 3.65
N7: S 2.63 | H 2.45 | V 1.71 | A 2.03
E16: K 1.28 | C 2.58 | L 2.09 | P 2.45 | T 1.96
E8: H 2.02 | G 2.44 | Q 1.88
Y1: E 4.45 | L 2.96
L12: G 2.99 | V 2.21 | W 2.47
G10: P 1.52 | A 1.88 | V 1.98
E24: M 1.71 | C 1.96
R6: A 2.93 | V 1.87 | Q 2.77 | T 2.52 | E 2.97
I3: C 1.66 | E 2.64 | V 2.24 | W 1.02 | G 2.4
